{"source": "patent US20260258113", "proteins": {"B1": {"name": "endothelial nitric oxide synthase (eNOS), endogenous, in human resistance arteries (protein)", "chain": "GNLKSVAQEPGPPCGLGLGLGLGLCGKQGPATPAPEPSRAPASLLPPAPEHSPPSSPLTQPPEGPKFPRVKNWEVGSITYDTLSAQAQQDGPCTPRRCLGSLVFPRKLQGRPSPGPPAPEQLLSQARDFINQYYSSIKRSGSQAHEQRLQEVEAEVAATGTYQLRESELVFGAKQAWRNAPRCVGRIQWGKLQVFDARDCRSAQEMFTYICNHIKYATNRGNLRSAITVFPQRCPGRGDFRIWNSQLVRYAGYRQQDGSVRGDPANVEITELCIQHGWTPGNGRFDVLPLLLQAPDDPPELFLLPPELVLEVPLEHPTLEWFAALGLRWYALPAVSNMLLEIGGLEFPAAPFSGWYMSTEIGTRNLCDPHRYNILEDVAVCMDLDTRTTSSLWKDKAAVEINVAVLHSYQLAKVTIVDHHAATASFMKHLENEQKARGGCPADWAWIVPPISGSLTPVFHQEMVNYFLSPAFRYQPDPWKGSAAKGTGITRKKTFKEVANAVKISASLMGTVMAKRVKATILYGSETGRAQSYAQQLGRLFRKAFDPRVLCMDEYDVVSLEHETLVLVVTSTFGNGDPPENGESFAAALMEMSGPYNSSPRPEQHKSYKIRFNSISCSDPLVSSWRRKRKESSNTDSAGALGTLRFCVFGLGSRAYPHFCAFARAVDTRLEELGGERLLQLGQGDELCGQEEAFRGWAQAAFQAACETFCVGEDAKAAARDIFSPKRSWKRQRYRLSAQAEGLQLLPGLIHVHRRKMFQATIRSVENLQSSKSTRATILVRLDTGGQEGLQYQPGDHIGVCPPNRPGLVEALLSRVEDPPAPTEPVAVEQLEKGSPGGPPPGWVRDPRLPPCTLRQALTFFLDITSPPSPQLLRLLSTLAEEPREQQELEALSQDPRRYEEWKWFRCPTLLEVLEQFPSVALPAPLLLTQLPLLQPRYYSVSSAPSTHPGEIHLTVAVLAYRTQDGLGPLHYGVCSTWLSQLKPGDPVPCFIRGAPSFRLPPDPSLPCILVGPGTGIAPFRGFWQERLHDIESKGLQPTPMTLVFGCRCSQLDHLYRDEVQNAQQRGVFGRVLTAFSREPDNPKTYVQDILRTELAAEVHRVLCLERGHMFVCGDVTMATNVLQTVQRILATEGDMELDEAGDVIGVLRDQQRYHEDIFGLTLRTQEVTSRIRTQSFSLQERQLRGAVPWAFDPPGSDTNSP"}}, "biological_target": "alpha globin, endogenous, in perfused human omental arteries, P69905", "sequence (P69905 2-142)": "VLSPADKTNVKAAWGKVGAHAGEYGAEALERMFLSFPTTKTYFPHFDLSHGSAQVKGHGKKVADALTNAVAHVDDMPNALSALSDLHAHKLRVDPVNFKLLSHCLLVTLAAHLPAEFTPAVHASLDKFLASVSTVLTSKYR"}
{"protein": "B1", "values": [{"measurement": "ROI average fluorescence lifetime after co-labelling with the alpha globin and eNOS antibodies (FLIM, FRET-like shift)", "value": "the eNOS + HBA ROIs lie at about 2.9 to 3.6 ns, below HBA alone (about 3.6 to 4.2 ns) and eNOS alone (about 3.8 to 4.15 ns); p<0.0001 printed for both comparisons"}, {"measurement": "fluorescence lifetime histogram after co-labelling with the alpha globin and eNOS antibodies (FLIM, FRET-like shift)", "value": "the co-labelled curve d (HBA + eNOS) peaks at about 3.95 ns, left of HBA only (b, about 4.2 ns), eNOS only (c, about 4.25 ns) and unstained (a, about 4.35 ns)"}]}
